Positions of bridges follow the written chain, without caps; N, C: chain ends.
Target: T1, CXCR4 receptor (Homo sapiens, UniProt P61073)
T1 construct: incubation of THP-1 cells with SDF-1; endogenous in cells; host or cells: THP-1 cells
Assay: [Ca2+]i mobilization in fura-2,AM loaded THP-1 cells (FIG. 5, Table 6)
Type: cell-based
Conditions: 1×10^6/ml
Method: Fura-2,AM loaded THP-1 cells (1×10^6/ml) were stimulated with SDF-1, Compound A or Compound K at the concentrations indicated. The values represent the mean ± one S.D. of n=3 experiments.
Fura-2,AM loaded THP-1 cells (1×10^6/ml) were stimulated with native SDF-1 and the SDF-1 peptide analogs at the concentration of native SDF-1 concentration that gave the maximum [Ca^2+]1 stimulation (1 μM). The values represent the mean ± one S.D. of n=3 experiments.
This example illustrates the efficacy of SDF-1 and SDF-1 peptide analogs in mediating intracellular calcium mobilization ([Ca^2+]i). To illustrate that the binding of SDF-1 and SDF-1 peptide analogs results in the agonistic induction of the CXCR4 receptor, [Ca^2+]i mobilization assays were conducted, the results of which are shown in FIG. 5. To obtain the data shown in FIG. 5, fura-2,AM loaded THP-1 cells (1×10^6/ml) were stimulated with Compound A/SDF-1, SDF-1(1-14)-(G)4-SDF-1(55-67) Lys20/Glu24-cyclic amide (SEQ ID NO:809) or Compound K/SDF-1(1-14)-(G)4-SDF-1(55-67)-Glu24/Lys28-cyclic amide (SEQ ID NO:803) at the concentrations indicated (the values represent the mean ± one S.D. of n=3 experiments). […]

T1 sequence (P61073 whole entry): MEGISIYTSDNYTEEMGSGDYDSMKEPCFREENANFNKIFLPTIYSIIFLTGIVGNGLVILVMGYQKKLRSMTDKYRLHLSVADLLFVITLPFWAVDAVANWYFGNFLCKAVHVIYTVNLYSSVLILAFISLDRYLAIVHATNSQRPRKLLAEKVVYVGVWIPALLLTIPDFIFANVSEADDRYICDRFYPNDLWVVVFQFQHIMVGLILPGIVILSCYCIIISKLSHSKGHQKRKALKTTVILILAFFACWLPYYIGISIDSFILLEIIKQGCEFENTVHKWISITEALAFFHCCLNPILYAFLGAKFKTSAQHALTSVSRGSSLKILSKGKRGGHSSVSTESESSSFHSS

- EC50: 148 nM
Substance: H2N-Lys-Pro-Val-Ser-Leu-Ser-Tyr-Arg-Cys-Pro-Cys-Arg-Phe-Phe-[Gly-Gly-Gly-Gly]-Leu-Lys-Trp-Ile-Gln-Glu-Tyr-Leu-Glu-Lys-Ala-Leu-Asn-NH2 (H-KPVSLSYRCPCRFFGGGGLKWIQEYLEKALN-NH2; lactam 20-24; cysteine pairing not given here) [Compound A]
